We go through two molecules from paper PMC10968392, “Fluorometric and Colorimetric Method for SARS-CoV-2 Detection Using Designed Aptamer Display Particles”.

The target in the data set is SARS-CoV-2 spike protein extracellular domain (ECD), biotinylated (SARS-CoV-2, UniProt P0DTC2). In words: bead-based flow cytometry. The following applies: protein: commercial; chain copies: 3.

B1: C4-AdP (SpS1-C4 displayed on magnetic particle) (ssDNA)
DNA: GAACATTGGCGTCCGTGAGCAGCTCGTGGTTGTTTGCTTGTATACTTTTGTGGTTTATCTTGTTTCTGATCACTTCCTCAAACGCCCAA
modifications: 5' amino linkage to bead
For B1, the binding result was “binds”.

B2: C1-AdP (SpS1-C1 displayed on magnetic particle) (ssDNA)
DNA: GAACATTGGCGTCCGTGAGTGAGACCATAGTCCAGCGAACTAAACCTACCCTAAAGGGCAAGGAAGACGGGCACTTCCTCAAACGCCCAA
modifications: 5' amino linkage to bead
For B2, the binding result is given as “binds”.
